Columns and labels:
[1] = substrate: C/C=C/C(=O)C1=C(OC)OC(C)(/C=C/C=C/C(C)O)C1=O; test: Activity of mouse DNA polymerase iota using dTTP substrate at 10 uM by Lineweaver-Burke plot
[2] = substrate: C/C=C/C(=O)C1=C(OC)OC(C)(/C=C/C=C/C(C)O)C1=O; test: Activity of mouse DNA polymerase iota using poly(dA/oligo(dT) substrate at 15 uM by Lineweaver-Burke plot
[3] = substrate: C/C=C/C(=O)C1=C(OC)OC(C)(/C=C/C=C/C(C)O)C1=O; test: Activity of mouse DNA polymerase iota using dTTP substrate at 5 uM by Lineweaver-Burke plot
[4] = substrate: C/C=C/C(=O)C1=C(OC)OC(C)(/C=C/C=C/C(C)O)C1=O; test: Activity of mouse DNA polymerase iota using dTTP substrate at 15 uM by Lineweaver-Burke plot
[5] = substrate: C/C=C/C(=O)C1=C(OC)OC(C)(/C=C/C=C/C(C)O)C1=O; test: Activity of mouse DNA polymerase iota using poly(dA/oligo(dT) substrate at 10 uM by Lineweaver-Burke plot
[6] = substrate: C/C=C/C(=O)C1=C(OC)OC(C)(/C=C/C=C/C(C)O)C1=O; test: Activity of mouse DNA polymerase iota using poly(dA/oligo(dT) substrate at 5 uM by Lineweaver-Burke plot

B1: DNA polymerase iota (Mus musculus), Q6R3M4 (protein)
chain: MEPLHAGAAGSSRAVCSQGPPTQISSSRVIVHVDLDCFYAQVEMISNPELKDRPLGVQQKYLVVTCNYEARKLGVRKLMNVRDAKEKCPQLVLVNGEDLSRYREMSYKVTELLEEFSPAVERLGFDENFVDLTEMVEKRLQQLPSEEVPSVTVFGHVYNNQSVNLHNIMHRRLVVGSQIAAEMREAMYNQLGLTGCAGVAPNKLLAKLVSGVFKPNQQTVLLPESCQHLIHSLNHIKEIPGIGYKTAKRLEVLGINSVHDLQTFPIKTLEKELGIAIAQRIQQLSFGEDKSPVTPSGPPQSFSEEDTFKKCSSEVEAKAKIEELLSSLLTRVCQDGRKPHTVRLVIRRYSDKHCNRESRQCPIPSHVIQKLGTGNHDSMPPLIDILMKLFRNMVNVKMPFHLTLMSVCFCNLKALSSAKKGPMDCYLTSLSTPAYTDKRAFKVKDTHTEDSHKEKEANWDCLPSRRIESTGTGESPLDATCFPKEKDTSDLPLQALPEGVDQEVFKQLPADIQEEILYGKSRENLKGKGSLSCPLHASRGVLSFFSTKQMQASRLSPRDTALPSKRVSAASPCEPGTSGLSPGSTSHPSCGKDCSYYIDSQLKDEQTSQGPTESQGCQFSSTNPAVSGFHSFPNLQTEQLFSTHRTVDSHKQTATASHQGLESHQGLESRELDSAEEKLPFPPDIDPQVFYELPEEVQKELMAEWERAGAARPSAHR
**Q.** With B1 as the protein, how does the Vmax [1] read?
**A.** The Vmax was 27.6 pmol/h.

**Q.** What about the Vmax [2] of the same protein?
**A.** Its Vmax is 14.8 pmol/h.

**Q.** And the Vmax [3]?
**A.** The Vmax was 35.7 pmol/h.

**Q.** What about the Vmax [4] of the same protein?
**A.** Its Vmax is 22.5 pmol/h.

**Q.** What about the Vmax [5] of the same protein?
**A.** Its Vmax is 20 pmol/h.

**Q.** What about the Vmax [6] of the same protein?
**A.** The Vmax was 31.1 pmol/h.

From ChEMBL document CHEMBL1152764, “Penicilliols A and B, novel inhibitors specific to mammalian Y-family DNA polymerases” (Bioorg Med Chem, 2009)
